Laboratory results reported in PMC9283540.
pKd: −log10 of the molar value.

What was measured:
[1] = molecular target: TipsytheTRex immunity repressor (WT of study stock) (Mycobacteriophage TipsytheTRex (cluster A)) (UniProt A0A2D1GKF7); experiment: EMSA; details: 0.25 uM labeled DNA; EMSA: 20 mM Tris pH 7.0, 25 mM NaCl, 1 mM DTT, 100 ug/mL BSA, 5% glycerol, 0.25 uM FAM-DNA, room temperature 30 min, 5% native gel in 1x TAE
[2] = molecular target: TipsytheTRex repressor D104A (Mycobacteriophage TipsytheTRex (cluster A)) (UniProt A0A2D1GKF7); experiment: EMSA; details: 0.25 uM labeled DNA; ~3.5-fold weaker than WT; EMSA: 20 mM Tris pH 7.0, 25 mM NaCl, 1 mM DTT, 100 ug/mL BSA, 5% glycerol, 0.25 uM FAM-DNA, room temperature 30 min, 5% native gel in 1x TAE

Sequence: ACGGCCCGCTTGACAGCCACCGAAACATCC (double strand) [30-bp optimal]
- pKd [1]: 7.23
- pKd [2]: 6.68
